Source: patent publication US20220298218A1 (ANTAG THERAPEUTICS, published 2022)
Where two headings read alike, the source gives them in different places. *1 amine or outer side, *2 acyl side, *3 side chain or, on linkers, in order; H or OH if unused. Where no end group is shown, it is not given here. Side-chain parts run from the residue outwards. The star is where a group is joined. C18 diacid = O=C(O)CCCCCCCCCCCCCCCCC(=O)*; C16 diacid = O=C(O)CCCCCCCCCCCCCCC(=O)*; γGlu = O=C(O)[C@H](CCC(=O)[*:2])N[*:1]; AEEA = NCCOCCOCC(=O)O

Assays:
human GIP receptor [1] = molecular target: T1, human GIP receptor (human, UniProt P48546 22-466); experiment: cell-based or functional assay
T1 sequence (looked up): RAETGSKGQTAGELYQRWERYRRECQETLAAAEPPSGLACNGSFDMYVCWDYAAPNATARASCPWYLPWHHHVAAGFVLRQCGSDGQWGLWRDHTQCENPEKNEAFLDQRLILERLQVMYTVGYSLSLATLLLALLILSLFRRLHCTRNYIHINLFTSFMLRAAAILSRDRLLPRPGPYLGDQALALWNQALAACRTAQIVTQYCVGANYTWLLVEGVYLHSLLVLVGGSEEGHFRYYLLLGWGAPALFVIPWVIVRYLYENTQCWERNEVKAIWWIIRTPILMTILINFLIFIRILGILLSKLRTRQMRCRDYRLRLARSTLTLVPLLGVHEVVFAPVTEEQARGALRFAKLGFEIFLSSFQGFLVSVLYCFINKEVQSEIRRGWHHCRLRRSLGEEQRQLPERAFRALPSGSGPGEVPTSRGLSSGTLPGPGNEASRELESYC

human GIP receptor [2] = molecular target: T1, human GIP receptor; experiment: cell-based or functional assay; remark: listed apart in the source

B1: AT475 (peptide)
peptide: FISDYSIAMDKIK(C16 diacid)QQDFVNWLLAQKGPSSGAPPPS-OH
modifications: N-terminus assumed
SMILES: CC[C@H](C)[C@H](NC(=O)[C@H](CO)NC(=O)[C@H](Cc1ccc(O)cc1)NC(=O)[C@H](CC(=O)O)NC(=O)[C@H](CO)NC(=O)[C@@H](NC(=O)[C@@H](N)Cc1ccccc1)[C@@H](C)CC)C(=O)N[C@@H](C)C(=O)N[C@@H](CCSC)C(=O)N[C@@H](CC(=O)O)C(=O)N[C@@H](CCCCN)C(=O)N[C@H](C(=O)N[C@@H](CCCCNC(=O)CCCCCCCCCCCCCCC(=O)O)C(=O)N[C@@H](CCC(N)=O)C(=O)N[C@@H](CCC(N)=O)C(=O)N[C@@H](CC(=O)O)C(=O)N[C@@H](Cc1ccccc1)C(=O)N[C@H](C(=O)N[C@@H](CC(N)=O)C(=O)N[C@@H](Cc1c[nH]c2ccccc12)C(=O)N[C@@H](CC(C)C)C(=O)N[C@@H](CC(C)C)C(=O)N[C@@H](C)C(=O)N[C@@H](CCC(N)=O)C(=O)N[C@@H](CCCCN)C(=O)NCC(=O)N1CCC[C@H]1C(=O)N[C@@H](CO)C(=O)N[C@@H](CO)C(=O)NCC(=O)N[C@@H](C)C(=O)N1CCC[C@H]1C(=O)N1CCC[C@H]1C(=O)N1CCC[C@H]1C(=O)N[C@@H](CO)C(=O)O)C(C)C)[C@@H](C)CC
cAMP antagonism (human GIP receptor [1]): 4 nM
cAMP antagonism % inhib (human GIP receptor [1]): 100%
cAMP antagonism log (human GIP receptor [1]): -8.4 log M
cAMP agonism % Emax (human GIP receptor [2]): 0%
cAMP antagonism (human GIP receptor [2]): 7.9 nM
cAMP antagonism % inhib (human GIP receptor [2]): 96%
cAMP antagonism pIC50 (human GIP receptor [2]): 8.1

B2: AT431 (peptide)
peptide: EGTFISDYSIAMDKIK([AEEA-AEEA-γGlu-C16 diacid])QQDFVNWLLAQKGPSSGAPPPS-OH
modifications: N-terminus assumed
SMILES: CC[C@H](C)[C@H](NC(=O)[C@H](CO)NC(=O)[C@H](Cc1ccc(O)cc1)NC(=O)[C@H](CC(=O)O)NC(=O)[C@H](CO)NC(=O)[C@@H](NC(=O)[C@H](Cc1ccccc1)NC(=O)[C@@H](NC(=O)CNC(=O)[C@@H](N)CCC(=O)O)[C@@H](C)O)[C@@H](C)CC)C(=O)N[C@@H](C)C(=O)N[C@@H](CCSC)C(=O)N[C@@H](CC(=O)O)C(=O)N[C@@H](CCCCN)C(=O)N[C@H](C(=O)N[C@@H](CCCCNC(=O)COCCOCCNC(=O)COCCOCCNC(=O)CC[C@H](NC(=O)CCCCCCCCCCCCCCC(=O)O)C(=O)O)C(=O)N[C@@H](CCC(N)=O)C(=O)N[C@@H](CCC(N)=O)C(=O)N[C@@H](CC(=O)O)C(=O)N[C@@H](Cc1ccccc1)C(=O)N[C@H](C(=O)N[C@@H](CC(N)=O)C(=O)N[C@@H](Cc1c[nH]c2ccccc12)C(=O)N[C@@H](CC(C)C)C(=O)N[C@@H](CC(C)C)C(=O)N[C@@H](C)C(=O)N[C@@H](CCC(N)=O)C(=O)N[C@@H](CCCCN)C(=O)NCC(=O)N1CCC[C@H]1C(=O)N[C@@H](CO)C(=O)N[C@@H](CO)C(=O)NCC(=O)N[C@@H](C)C(=O)N1CCC[C@H]1C(=O)N1CCC[C@H]1C(=O)N1CCC[C@H]1C(=O)N[C@@H](CO)C(=O)O)C(C)C)[C@@H](C)CC
cAMP antagonism (human GIP receptor [1]): 7 nM
cAMP antagonism % inhib (human GIP receptor [1]): 75%
cAMP antagonism log (human GIP receptor [1]): -8.1 log M
cAMP agonism % Emax (human GIP receptor [2]): 0%
cAMP antagonism (human GIP receptor [2]): 34.2 nM
cAMP antagonism % inhib (human GIP receptor [2]): 77%
cAMP antagonism pIC50 (human GIP receptor [2]): 7.5

B3: AT434 (peptide)
peptide: EGTFISDYSIAMDKIK([AEEA-AEEA-AEEA-γGlu-C18 diacid])QQDFVNWLLAQKGPSSGAPPPS-OH
modifications: N-terminus assumed
SMILES: CC[C@H](C)[C@H](NC(=O)[C@H](CO)NC(=O)[C@H](Cc1ccc(O)cc1)NC(=O)[C@H](CC(=O)O)NC(=O)[C@H](CO)NC(=O)[C@@H](NC(=O)[C@H](Cc1ccccc1)NC(=O)[C@@H](NC(=O)CNC(=O)[C@@H](N)CCC(=O)O)[C@@H](C)O)[C@@H](C)CC)C(=O)N[C@@H](C)C(=O)N[C@@H](CCSC)C(=O)N[C@@H](CC(=O)O)C(=O)N[C@@H](CCCCN)C(=O)N[C@H](C(=O)N[C@@H](CCCCNC(=O)COCCOCCNC(=O)COCCOCCNC(=O)COCCOCCNC(=O)CC[C@H](NC(=O)CCCCCCCCCCCCCCCCC(=O)O)C(=O)O)C(=O)N[C@@H](CCC(N)=O)C(=O)N[C@@H](CCC(N)=O)C(=O)N[C@@H](CC(=O)O)C(=O)N[C@@H](Cc1ccccc1)C(=O)N[C@H](C(=O)N[C@@H](CC(N)=O)C(=O)N[C@@H](Cc1c[nH]c2ccccc12)C(=O)N[C@@H](CC(C)C)C(=O)N[C@@H](CC(C)C)C(=O)N[C@@H](C)C(=O)N[C@@H](CCC(N)=O)C(=O)N[C@@H](CCCCN)C(=O)NCC(=O)N1CCC[C@H]1C(=O)N[C@@H](CO)C(=O)N[C@@H](CO)C(=O)NCC(=O)N[C@@H](C)C(=O)N1CCC[C@H]1C(=O)N1CCC[C@H]1C(=O)N1CCC[C@H]1C(=O)N[C@@H](CO)C(=O)O)C(C)C)[C@@H](C)CC
cAMP antagonism (human GIP receptor [1]): 14 nM
cAMP antagonism % inhib (human GIP receptor [1]): 100%
cAMP antagonism log (human GIP receptor [1]): -7.9 log M
cAMP antagonism (human GIP receptor [2]): 35.5 nM
cAMP antagonism % inhib (human GIP receptor [2]): 95%
cAMP antagonism pIC50 (human GIP receptor [2]): 7.5

B4: AT435 (peptide)
peptide: SGTFISDYSIAMDKIK([AEEA-AEEA-γGlu-C16 diacid])QQDFVNWLLAQKGPSSGAPPPS-OH
modifications: N-terminus assumed
SMILES: CC[C@H](C)[C@H](NC(=O)[C@H](CO)NC(=O)[C@H](Cc1ccc(O)cc1)NC(=O)[C@H](CC(=O)O)NC(=O)[C@H](CO)NC(=O)[C@@H](NC(=O)[C@H](Cc1ccccc1)NC(=O)[C@@H](NC(=O)CNC(=O)[C@@H](N)CO)[C@@H](C)O)[C@@H](C)CC)C(=O)N[C@@H](C)C(=O)N[C@@H](CCSC)C(=O)N[C@@H](CC(=O)O)C(=O)N[C@@H](CCCCN)C(=O)N[C@H](C(=O)N[C@@H](CCCCNC(=O)COCCOCCNC(=O)COCCOCCNC(=O)CC[C@H](NC(=O)CCCCCCCCCCCCCCC(=O)O)C(=O)O)C(=O)N[C@@H](CCC(N)=O)C(=O)N[C@@H](CCC(N)=O)C(=O)N[C@@H](CC(=O)O)C(=O)N[C@@H](Cc1ccccc1)C(=O)N[C@H](C(=O)N[C@@H](CC(N)=O)C(=O)N[C@@H](Cc1c[nH]c2ccccc12)C(=O)N[C@@H](CC(C)C)C(=O)N[C@@H](CC(C)C)C(=O)N[C@@H](C)C(=O)N[C@@H](CCC(N)=O)C(=O)N[C@@H](CCCCN)C(=O)NCC(=O)N1CCC[C@H]1C(=O)N[C@@H](CO)C(=O)N[C@@H](CO)C(=O)NCC(=O)N[C@@H](C)C(=O)N1CCC[C@H]1C(=O)N1CCC[C@H]1C(=O)N1CCC[C@H]1C(=O)N[C@@H](CO)C(=O)O)C(C)C)[C@@H](C)CC
cAMP antagonism (human GIP receptor [1]): 75 nM
cAMP antagonism % inhib (human GIP receptor [1]): 100%
cAMP antagonism log (human GIP receptor [1]): -7.1 log M
cAMP antagonism (human GIP receptor [2]): 79.4 nM
cAMP antagonism % inhib (human GIP receptor [2]): 84%
cAMP antagonism pIC50 (human GIP receptor [2]): 7.1

B5: AT423 (peptide)
peptide: SGTFISDYSIAMDRIK([AEEA-AEEA-γGlu-C16 diacid])QQDFVNWLLAQRGRRNDW-OH
modifications: N-terminus assumed
SMILES: CC[C@H](C)[C@H](NC(=O)[C@H](CO)NC(=O)[C@H](Cc1ccc(O)cc1)NC(=O)[C@H](CC(=O)O)NC(=O)[C@H](CO)NC(=O)[C@@H](NC(=O)[C@H](Cc1ccccc1)NC(=O)[C@@H](NC(=O)CNC(=O)[C@@H](N)CO)[C@@H](C)O)[C@@H](C)CC)C(=O)N[C@@H](C)C(=O)N[C@@H](CCSC)C(=O)N[C@@H](CC(=O)O)C(=O)N[C@@H](CCCNC(=N)N)C(=O)N[C@H](C(=O)N[C@@H](CCCCNC(=O)COCCOCCNC(=O)COCCOCCNC(=O)CC[C@H](NC(=O)CCCCCCCCCCCCCCC(=O)O)C(=O)O)C(=O)N[C@@H](CCC(N)=O)C(=O)N[C@@H](CCC(N)=O)C(=O)N[C@@H](CC(=O)O)C(=O)N[C@@H](Cc1ccccc1)C(=O)N[C@H](C(=O)N[C@@H](CC(N)=O)C(=O)N[C@@H](Cc1c[nH]c2ccccc12)C(=O)N[C@@H](CC(C)C)C(=O)N[C@@H](CC(C)C)C(=O)N[C@@H](C)C(=O)N[C@@H](CCC(N)=O)C(=O)N[C@@H](CCCNC(=N)N)C(=O)NCC(=O)N[C@@H](CCCNC(=N)N)C(=O)N[C@@H](CCCNC(=N)N)C(=O)N[C@@H](CC(N)=O)C(=O)N[C@@H](CC(=O)O)C(=O)N[C@@H](Cc1c[nH]c2ccccc12)C(=O)O)C(C)C)[C@@H](C)CC
cAMP antagonism (human GIP receptor [1]): 6 nM
cAMP antagonism % inhib (human GIP receptor [1]): 95%
cAMP antagonism log (human GIP receptor [1]): -8.2 log M
cAMP agonism % Emax (human GIP receptor [2]): 0%
cAMP antagonism (human GIP receptor [2]): 79.4 nM
cAMP antagonism % inhib (human GIP receptor [2]): 71%
cAMP antagonism pIC50 (human GIP receptor [2]): 7.1

EGTFISDYSIAMDKIK([AEEA-AEEA-γGlu-C18 diacid])QQDFVNWLLAQKGPSSGAPPPS [AT433]
cAMP antagonism (human GIP receptor [1]): 62 nM
cAMP antagonism % inhib (human GIP receptor [1]): 100%
cAMP antagonism log (human GIP receptor [1]): -7.2 log M
cAMP agonism % Emax (human GIP receptor [2]): 0%
cAMP antagonism (human GIP receptor [2]): 7.94 nM
cAMP antagonism % inhib (human GIP receptor [2]): 89%
cAMP antagonism pIC50 (human GIP receptor [2]): 8.1
